# From publication PMC13398683
# Biological target: Endothelin Receptor Type B (human (endogenous in LGG275 and other patient-derived glioma lines)) (UniProt P24530)
# Sequence of UniProt P24530 (P24530 27-442): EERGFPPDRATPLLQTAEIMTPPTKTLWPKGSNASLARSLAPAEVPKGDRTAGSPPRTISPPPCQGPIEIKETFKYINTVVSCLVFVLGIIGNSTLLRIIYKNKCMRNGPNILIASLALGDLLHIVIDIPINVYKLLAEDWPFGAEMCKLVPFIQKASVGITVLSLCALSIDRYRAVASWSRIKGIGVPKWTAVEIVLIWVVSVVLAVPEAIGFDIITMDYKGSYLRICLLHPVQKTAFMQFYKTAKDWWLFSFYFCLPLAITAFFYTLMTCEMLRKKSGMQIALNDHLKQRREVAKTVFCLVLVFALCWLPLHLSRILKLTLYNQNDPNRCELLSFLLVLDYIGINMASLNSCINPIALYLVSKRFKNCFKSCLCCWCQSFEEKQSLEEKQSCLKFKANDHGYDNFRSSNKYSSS
binder,measurement,value
CTCFTYKDKECVYYCHLDIIW (ligand) [Endothelin 3],"growth of LGG275 cells, dose-response with ET-3 (4 pM-40 nM): lowest concentration with growth inhibition",0.4 nM
